Reference: the supplement of paper PMC9112550, “Optimization of the antimicrobial peptide Bac7 by deep mutational scanning” (BMC Biology, 2022)

Tested on: Escherichia coli TOP10
Test: shrunken log2 fold change of peptide-encoding DNA abundance (4.5 h post-induction vs induction); higher = less antimicrobial activity (less host growth inhibition)
Conditions: time post-induction: 4.5 h; library: site-saturation at positions 5, 18, 19, 20
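Also: peptides expressed intracellularly from a pBAD plasmid library in pooled LB shake-flask culture, induced with 0.3% L-arabinose, DNA abundance read by NGS, three biological replicates, DESeq2 with apeglm shrinkage.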

Sequence	shrunken log2 fold change
RRIRLRPPRLPRPRPRPGARPRP	0.369
RRIRSRPPRLPRPRPRPTTLPRP	-0.0324
RRIRPRPPRLPRPRPRPYNHPRP	-1.2
RRIRLRPPRLPRPRPRPFQTPRP	-0.0347
RRIRERPPRLPRPRPRPDHRPRP	-0.00204
RRIRHRPPRLPRPRPRPEHPPRP	0.00839
RRIRQRPPRLPRPRPRPILEPRP	-0.536
RRIRQRPPRLPRPRPRPLGWPRP	0.8
RRIRIRPPRLPRPRPRPQTDPRP	-0.232
RRIRNRPPRLPRPRPRPFMHPRP	-0.142
RRIRERPPRLPRPRPRPLRTPRP	0.00359
RRIRSRPPRLPRPRPRPFRVPRP	0.166
RRIRNRPPRLPRPRPRPTVNPRP	-0.382
RRIRGRPPRLPRPRPRPMRFPRP	0.112
RRIRCRPPRLPRPRPRPASAPRP	0.248
RRIRVRPPRLPRPRPRPNICPRP	0.27
RRIRTRPPRLPRPRPRPWLTPRP	-0.0866
RRIRVRPPRLPRPRPRPIAFPRP	-0.207
RRIRGRPPRLPRPRPRPYGNPRP	-0.102
RRIRLRPPRLPRPRPRPQRCPRP	0.487
RRIRQRPPRLPRPRPRPRRWPRP	0.326
RRIRCRPPRLPRPRPRPQRLPRP	0.44
RRIRGRPPRLPRPRPRPWMKPRP	0.0546
RRIRHRPPRLPRPRPRPAIGPRP	-0.0264
RRIRPRPPRLPRPRPRPFYEPRP	-0.105

Sequence	shrunken log2 fold change
RRIRKRPPRLPRPRPRPMYRPRP	0.0629
RRIRARPPRLPRPRPRPVVCPRP	0.224
RRIRYRPPRLPRPRPRPTPVPRP	-0.0457
RRIRDRPPRLPRPRPRPPDIPRP	-0.0754
RRIRRRPPRLPRPRPRPVYWPRP	0.303
RRIRWRPPRLPRPRPRPVYKPRP	-0.516
RRIRFRPPRLPRPRPRPYMPPRP	-1.09
RRIRARPPRLPRPRPRPFAWPRP	0.122
RRIRVRPPRLPRPRPRPPQNPRP	0.188
RRIRIRPPRLPRPRPRPLSKPRP	-0.901
RRIRNRPPRLPRPRPRPMCQPRP	-0.0153
RRIRNRPPRLPRPRPRPTNAPRP	-0.182
RRIRCRPPRLPRPRPRPLCEPRP	-0.0345
RRIRHRPPRLPRPRPRPPRMPRP	0.284
RRIRHRPPRLPRPRPRPRFSPRP	-0.137
RRIRNRPPRLPRPRPRPKAEPRP	0.153
RRIRHRPPRLPRPRPRPRYQPRP	-1.18
RRIRSRPPRLPRPRPRPEYEPRP	-0.0387
RRIRVRPPRLPRPRPRPNDYPRP	-0.00419
RRIRVRPPRLPRPRPRPDLQPRP	0.00798
RRIRVRPPRLPRPRPRPLHGPRP	0.0379
RRIRMRPPRLPRPRPRPHPGPRP	0.293
RRIRIRPPRLPRPRPRPPHWPRP	0.0943
RRIRLRPPRLPRPRPRPELTPRP	0.067
RRIRIRPPRLPRPRPRPKKSPRP	-0.202

Sequence	shrunken log2 fold change
RRIRHRPPRLPRPRPRPFFNPRP	-0.632
RRIRNRPPRLPRPRPRPCCNPRP	-0.432
RRIRNRPPRLPRPRPRPLECPRP	-0.311
RRIRWRPPRLPRPRPRPTFVPRP	-0.183
RRIRQRPPRLPRPRPRPAAMPRP	0.248
RRIRMRPPRLPRPRPRPHFKPRP	-0.0841
RRIRWRPPRLPRPRPRPERQPRP	0.353
RRIRRRPPRLPRPRPRPDEVPRP	0.61
RRIRSRPPRLPRPRPRPCPDPRP	-0.388
RRIRFRPPRLPRPRPRPALRPRP	0.276
RRIRCRPPRLPRPRPRPALLPRP	0.292
RRIRPRPPRLPRPRPRPDLHPRP	-0.316
RRIRHRPPRLPRPRPRPKRLPRP	0.0708
RRIRQRPPRLPRPRPRPTRTPRP	1.65
RRIRSRPPRLPRPRPRPMMWPRP	0.598
RRIRLRPPRLPRPRPRPCNTPRP	-0.186
RRIRPRPPRLPRPRPRPTKTPRP	0.132
RRIRQRPPRLPRPRPRPWTTPRP	-0.0827
RRIRTRPPRLPRPRPRPHWTPRP	-0.0902
RRIRVRPPRLPRPRPRPIWSPRP	0.0334
RRIRPRPPRLPRPRPRPGQWPRP	0.236
RRIRTRPPRLPRPRPRPIMEPRP	-0.409
RRIRMRPPRLPRPRPRPVLHPRP	-0.309
RRIRRRPPRLPRPRPRPIVHPRP	-0.0757
RRIRNRPPRLPRPRPRPTPYPRP	-0.243

Sequence	shrunken log2 fold change
RRIRGRPPRLPRPRPRPSMKPRP	0.354
RRIRRRPPRLPRPRPRPDHFPRP	0.0408
RRIRERPPRLPRPRPRPDILPRP	0.0234
RRIRDRPPRLPRPRPRPPIIPRP	-0.0464
RRIRTRPPRLPRPRPRPNKKPRP	-0.26
RRIRPRPPRLPRPRPRPTQTPRP	0.147
RRIRCRPPRLPRPRPRPPKCPRP	0.203
RRIRLRPPRLPRPRPRPNGEPRP	0.00184
RRIRARPPRLPRPRPRPGYNPRP	-0.403
RRIRWRPPRLPRPRPRPIIVPRP	-0.138
RRIRSRPPRLPRPRPRPWHLPRP	-0.273
RRIRVRPPRLPRPRPRPPVIPRP	-0.101
RRIRLRPPRLPRPRPRPGDIPRP	-0.385
RRIRQRPPRLPRPRPRPRVYPRP	0.0498
RRIRWRPPRLPRPRPRPDDQPRP	-0.0297
RRIRGRPPRLPRPRPRPVDNPRP	0.408
RRIRARPPRLPRPRPRPQRTPRP	0.11
RRIRCRPPRLPRPRPRPNFLPRP	-0.265
RRIRGRPPRLPRPRPRPLYLPRP	-0.221
RRIRSRPPRLPRPRPRPEGFPRP	0.272
RRIRERPPRLPRPRPRPPPGPRP	0.418
RRIRCRPPRLPRPRPRPPHVPRP	0.385
RRIRSRPPRLPRPRPRPTCGPRP	0.468
RRIRSRPPRLPRPRPRPSQRPRP	-0.0585
RRIRRRPPRLPRPRPRPTMNPRP	-0.0748

Sequence	shrunken log2 fold change
RRIRDRPPRLPRPRPRPVDVPRP	-0.185
RRIRFRPPRLPRPRPRPLIYPRP	-0.898
RRIRYRPPRLPRPRPRPFIFPRP	-1.01
RRIRMRPPRLPRPRPRPYFCPRP	-0.352
RRIRMRPPRLPRPRPRPDMTPRP	-0.05
RRIRFRPPRLPRPRPRPFNCPRP	-0.113
RRIRSRPPRLPRPRPRPFTWPRP	-0.24
RRIRKRPPRLPRPRPRPICVPRP	0.0188
RRIRLRPPRLPRPRPRPTSSPRP	-0.178
RRIRIRPPRLPRPRPRPGKFPRP	-0.0679
RRIRERPPRLPRPRPRPYFIPRP	-1.17
RRIRSRPPRLPRPRPRPIDPPRP	0.017
RRIRERPPRLPRPRPRPGPEPRP	0.129
RRIRIRPPRLPRPRPRPEYLPRP	0.0178
RRIRRRPPRLPRPRPRPQRLPRP	0.124
RRIRHRPPRLPRPRPRPVNHPRP	-0.361
RRIRTRPPRLPRPRPRPNRKPRP	-0.104
RRIRFRPPRLPRPRPRPMCVPRP	-0.405
RRIRIRPPRLPRPRPRPKGTPRP	0.0146
RRIRFRPPRLPRPRPRPTNPPRP	-0.0887
RRIRRRPPRLPRPRPRPYYKPRP	-0.677
RRIRSRPPRLPRPRPRPLAKPRP	0.358
RRIRARPPRLPRPRPRPDPPPRP	0.901
RRIRTRPPRLPRPRPRPWDYPRP	-0.139
RRIRCRPPRLPRPRPRPPNRPRP	0.444

Sequence	shrunken log2 fold change
RRIRYRPPRLPRPRPRPMKTPRP	-0.0156
RRIRARPPRLPRPRPRPDFEPRP	0.661
RRIRRRPPRLPRPRPRPEMKPRP	0.215
RRIRMRPPRLPRPRPRPVPFPRP	0.179
RRIRPRPPRLPRPRPRPTYLPRP	-0.113
RRIRHRPPRLPRPRPRPVAEPRP	0.232
RRIRSRPPRLPRPRPRPGCLPRP	0.0602
RRIRLRPPRLPRPRPRPVVKPRP	-0.166
RRIRIRPPRLPRPRPRPIHQPRP	-1.14
RRIRSRPPRLPRPRPRPFIFPRP	-0.343
RRIRTRPPRLPRPRPRPHKPPRP	-0.0565
RRIRCRPPRLPRPRPRPMYDPRP	-0.0891
RRIRFRPPRLPRPRPRPHTWPRP	-0.415
RRIRIRPPRLPRPRPRPDVDPRP	-0.297
RRIRIRPPRLPRPRPRPIKMPRP	-0.177
RRIRIRPPRLPRPRPRPDCEPRP	-0.0193
RRIRIRPPRLPRPRPRPGEEPRP	-0.0165
RRIRQRPPRLPRPRPRPTYSPRP	0.0402
RRIRCRPPRLPRPRPRPMEWPRP	0.0244
RRIRKRPPRLPRPRPRPPPKPRP	1.2
RRIRMRPPRLPRPRPRPWTNPRP	-0.01
RRIRVRPPRLPRPRPRPTNYPRP	-0.519
RRIRIRPPRLPRPRPRPHAVPRP	-0.12
RRIRARPPRLPRPRPRPASFPRP	0.387
RRIRVRPPRLPRPRPRPKHDPRP	-0.31
